For data set [1], the target named is T1, GST-Ras2(HV)CCaaX, P01120.
T1 chain: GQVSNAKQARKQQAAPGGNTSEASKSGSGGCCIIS

Data set [2] has as its target H-Ras (N-terminal His6-tagged fusion), P01112.
In another data set the target is T2, GST-CCaaX, P01120.
T2 chain: CCIIS

In another data set the target is T3, GST-Ras2CCaaX, P01120.
T3 chain: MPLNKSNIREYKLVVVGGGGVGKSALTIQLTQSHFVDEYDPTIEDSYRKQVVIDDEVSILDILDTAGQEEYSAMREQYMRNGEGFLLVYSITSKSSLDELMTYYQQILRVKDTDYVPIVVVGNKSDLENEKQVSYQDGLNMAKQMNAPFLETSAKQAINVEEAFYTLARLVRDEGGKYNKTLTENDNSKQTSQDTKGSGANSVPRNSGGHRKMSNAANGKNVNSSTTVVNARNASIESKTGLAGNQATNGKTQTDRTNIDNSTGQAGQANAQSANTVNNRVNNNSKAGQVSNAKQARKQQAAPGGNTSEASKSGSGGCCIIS

One protein from patent US7488592 can be followed below.

H-Ras (N-terminal His6-tagged fusion), P01112, sequence (P01112 whole entry, looked up, the tested form may be a part): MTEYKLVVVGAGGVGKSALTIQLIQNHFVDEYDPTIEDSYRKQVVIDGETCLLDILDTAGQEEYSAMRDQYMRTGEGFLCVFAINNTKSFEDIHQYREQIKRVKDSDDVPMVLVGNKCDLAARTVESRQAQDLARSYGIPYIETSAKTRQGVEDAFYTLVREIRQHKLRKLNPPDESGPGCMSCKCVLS

B1: Erf2p/Erf4p complex (GST-Erf4p/FLAG-Erf2p on GSH beads) (protein)
chain 1: MALVSRRSTRSESTSITKEEHTGEGSLTKLFFRWLVTLEGDQDINDGKGYISLPNVSNYIFFLGGRFRTVKGAKPLWLGVLLAIVCPMVLFSIFEAHKLWHTQNGYKVLVIFFYYFWVITLASFIRTATSDPGVLPRNIHLSQLRNNYQIPQEYYNLITLPTHSSISKDITIKYCPSCRIWRPPRSSHCSTCNVCVMVHDHHCIWVNNCIGKRNYRFFLIFLLGAILSSVILLTNCAIHIARESGGPRDCPVAILLLCYAGLTLWYPAILFTYHIFMAGNQQTTREFLKGIGSKKNPVFHRVVKEENIYNKGSFLKNMGHLMLEPRGPSFVSARKPHEAGDWRFMDLSPAHSFEKIQKI
chain 2: MCDSHQKEEDNANTSERALFFNYHEFSYSFYEDLGSEDAKPTEHDEDHKLCITHFPNVYAARGSAEFQVTRVVRVPRRFDESRSSLETPQFSTQLPGSEPAAIVGDDGTSFVRCGRYDIGDHVFGCSSVSPLSEYLSAAELAEVVHRVNGFLLREEGEVFGWRNLSGLLLDMLTGGLWSWVLGPLLSRPVFQESLALEQYVAQLNSPGGLLHERGVRLVLPRRSGCLSLDFVVPRPK
With B1, in data set [1], the “acceleration of the spontaneous rate of palmitoylation” value was ~160-fold; the “palmitate incorporated into the Ras2p substrate (in vitro PAT assay, [3H]palmitoyl-CoA)” value is listed as 0.14 pmol/min; the “palmitate transferred (PAT assay)” value is 2720 pmol palmitate transferred/min/\u00b5mol substrate. Also, in the data set with Myristoylated Gi1, the “palmitate transferred (PAT assay)” value is recorded as 55 vs 2720 pmol palmitate transferred/min/\u00b5mol substrate and the “palmitoylation level relative to yeast Ras2p” value is on record as ~5% that of yeast Ras2p. For the same protein, in data set [2], the “palmitate transferred (PAT assay)” value is reported as 40 vs 2720 pmol palmitate transferred/min/\u00b5mol substrate and the “palmitoylation level relative to Ras2p” value is reported as “levels much lower (5%) than the proposed natural substrate, Ras2p”. For the same protein, in the data set with GST-CCaaX, P01120, the “in vitro palmitoylation relative to GST-(HV)CCaaX” value was “reduced 10-fold compared with GST-(HV)CCaaX”. The “in vitro palmitoylation (PAT assay)” value with GST-Ras2CCaaX, P01120 is “palmitoylated GST(HV)CCIIS to levels similar to full-length GST-Ras2CCIIS”.
